In US20140087995A1 (published 2014):
Numbered stars: 1 amine (or outer) side, 2 acyl side, 3 side chain; on linkers, the order of the positions; unused ones are H or OH. Bridge positions count the residues as written; N and C are the ends. Side chains are listed from the residue outwards. Ends that are not written are not given here. * marks the point of attachment. C20 diacid = O=C(O)CCCCCCCCCCCCCCCCCCC(=O)*; γGlu = O=C(O)[C@H](CCC(=O)[*:2])N[*:1]; AEEA = NCCOCCOCC(=O)O

T1: human calcitonin receptor (human, UniProt P30988 25-474)
T1 construct: whole, on cells; Membranes of stably transfected cells; also called hCTR; hCT
T1 sequence (looked up): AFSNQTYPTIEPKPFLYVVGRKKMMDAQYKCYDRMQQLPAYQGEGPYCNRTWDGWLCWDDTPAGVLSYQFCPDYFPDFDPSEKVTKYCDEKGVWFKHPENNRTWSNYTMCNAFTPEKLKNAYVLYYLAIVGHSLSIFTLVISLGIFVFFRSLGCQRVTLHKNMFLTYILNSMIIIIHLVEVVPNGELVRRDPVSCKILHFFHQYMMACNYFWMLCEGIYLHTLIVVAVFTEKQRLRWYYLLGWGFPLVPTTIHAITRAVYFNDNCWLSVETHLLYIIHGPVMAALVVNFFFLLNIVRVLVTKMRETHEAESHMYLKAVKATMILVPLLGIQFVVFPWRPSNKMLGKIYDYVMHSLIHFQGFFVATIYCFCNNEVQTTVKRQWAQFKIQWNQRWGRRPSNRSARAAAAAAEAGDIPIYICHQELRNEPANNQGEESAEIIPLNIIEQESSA

T2: rat calcitonin receptor (rat, UniProt P32214 25-516)
T2 construct: whole, on cells; Membranes of transiently transfected BHK tk'ts 13 cells; also called rCTR; rat calcitonin (a) receptor
T2 sequence (looked up): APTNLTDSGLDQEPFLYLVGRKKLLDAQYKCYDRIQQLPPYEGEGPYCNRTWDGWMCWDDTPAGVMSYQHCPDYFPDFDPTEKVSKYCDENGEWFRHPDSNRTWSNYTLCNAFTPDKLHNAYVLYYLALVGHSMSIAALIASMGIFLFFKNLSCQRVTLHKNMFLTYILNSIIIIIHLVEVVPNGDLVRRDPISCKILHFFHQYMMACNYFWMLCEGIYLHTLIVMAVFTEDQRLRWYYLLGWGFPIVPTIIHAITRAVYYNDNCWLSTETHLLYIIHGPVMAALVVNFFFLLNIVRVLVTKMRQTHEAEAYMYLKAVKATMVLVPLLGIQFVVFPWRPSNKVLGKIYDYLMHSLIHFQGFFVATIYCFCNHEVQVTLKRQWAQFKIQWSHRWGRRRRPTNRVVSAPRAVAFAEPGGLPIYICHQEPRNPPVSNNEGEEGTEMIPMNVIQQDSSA

T3: rat amylin receptor (rat calcitonin receptor + rat RAMP 3) (rat, UniProt P32214 25-516; Q9JJ73 23-147)
T3 construct: whole, on cells; Membranes of transiently transfected BHK tk'ts 13 cells; also called rAmylin-R; rat amylin 3(a) receptor
T3 sequence (looked up) 1: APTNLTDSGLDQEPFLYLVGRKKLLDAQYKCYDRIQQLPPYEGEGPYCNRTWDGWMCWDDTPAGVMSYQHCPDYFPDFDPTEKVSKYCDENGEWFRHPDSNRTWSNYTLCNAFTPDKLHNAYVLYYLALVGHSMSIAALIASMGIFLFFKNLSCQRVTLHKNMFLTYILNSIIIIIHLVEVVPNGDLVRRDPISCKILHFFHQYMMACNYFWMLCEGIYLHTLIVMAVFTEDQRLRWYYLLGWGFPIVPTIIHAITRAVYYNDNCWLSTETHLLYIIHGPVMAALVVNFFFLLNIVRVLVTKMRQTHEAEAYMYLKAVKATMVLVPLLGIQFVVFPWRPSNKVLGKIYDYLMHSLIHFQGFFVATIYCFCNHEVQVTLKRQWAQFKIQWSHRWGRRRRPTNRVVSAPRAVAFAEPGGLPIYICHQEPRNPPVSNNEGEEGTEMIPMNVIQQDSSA
T3 sequence (looked up) 2: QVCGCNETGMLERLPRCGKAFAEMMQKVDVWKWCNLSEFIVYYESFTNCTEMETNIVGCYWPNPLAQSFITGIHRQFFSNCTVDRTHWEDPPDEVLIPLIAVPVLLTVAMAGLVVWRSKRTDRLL

T4: human calcitonin receptor (human, UniProt P30988 25-474)
T4 construct: whole, on cells; Used as membranes prepared from the transfected cells; also called hCTR; hCT
T4 sequence (looked up): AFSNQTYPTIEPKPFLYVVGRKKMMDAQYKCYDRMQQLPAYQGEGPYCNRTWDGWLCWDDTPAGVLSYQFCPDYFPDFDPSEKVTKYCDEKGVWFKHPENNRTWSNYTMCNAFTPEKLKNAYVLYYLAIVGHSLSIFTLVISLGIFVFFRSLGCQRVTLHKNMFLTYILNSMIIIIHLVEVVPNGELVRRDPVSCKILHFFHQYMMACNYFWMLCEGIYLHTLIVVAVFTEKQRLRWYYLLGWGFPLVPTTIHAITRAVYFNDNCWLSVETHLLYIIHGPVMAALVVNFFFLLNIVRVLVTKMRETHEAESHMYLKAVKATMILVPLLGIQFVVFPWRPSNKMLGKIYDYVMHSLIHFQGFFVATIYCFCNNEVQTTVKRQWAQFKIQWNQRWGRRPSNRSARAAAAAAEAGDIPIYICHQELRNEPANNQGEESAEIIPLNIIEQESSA

T5: rat calcitonin receptor (rat, UniProt P32214 25-516)
T5 construct: whole, on cells; Used as membranes prepared from the transfected cells; also called rCTR; rCT
T5 sequence (looked up): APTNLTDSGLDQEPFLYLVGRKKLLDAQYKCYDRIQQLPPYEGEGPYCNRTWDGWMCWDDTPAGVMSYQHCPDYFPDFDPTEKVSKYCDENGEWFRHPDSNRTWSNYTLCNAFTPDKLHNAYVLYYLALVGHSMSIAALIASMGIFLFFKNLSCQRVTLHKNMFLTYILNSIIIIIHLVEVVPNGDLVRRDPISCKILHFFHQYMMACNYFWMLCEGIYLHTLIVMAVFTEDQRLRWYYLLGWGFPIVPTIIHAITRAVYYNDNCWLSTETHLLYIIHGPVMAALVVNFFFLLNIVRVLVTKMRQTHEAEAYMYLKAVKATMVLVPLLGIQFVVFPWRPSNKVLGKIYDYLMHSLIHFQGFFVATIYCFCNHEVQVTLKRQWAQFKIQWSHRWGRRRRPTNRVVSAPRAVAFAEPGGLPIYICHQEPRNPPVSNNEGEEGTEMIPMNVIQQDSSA


Key:
[1] = biological target: T1, human calcitonin receptor; assay: ratio of IC50 on human calcitonin receptor to IC50 on human amylin receptor (reference m42), SPA competition
Procedure, shortened: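 Competition binding by SPA with cell membranes (35 ng/μL) and SPA beads in 50 mM Hepes pH 7.4 with 1 mM CaCl2, 5 mM MgCl2, 0.1% OA and 0.02% Tween20. Incubated 120 min at 25 °C with shaking, then counted.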

rat calcitonin receptor [2] = biological target: T2, rat calcitonin receptor; assay: SPA competition with 125I-calcitonin on membranes of BHK tk'ts 13 cells with rat calcitonin receptor (Assay VIII)
rat calcitonin receptor [3] = biological target: T2, rat calcitonin receptor; assay: ratio of IC50 on rat calcitonin receptor to IC50 on rat amylin receptor (reference m40)
[4] = biological target: T3, rat amylin receptor (rat calcitonin …); assay: SPA competition with 125I-rat amylin on membranes of BHK tk'ts 13 cells with rat calcitonin receptor + rat RAMP3 (Assay VI)
[5] = biological target: T4, human calcitonin receptor; assay: ratio of binding IC50 at human calcitonin receptor to IC50 at human amylin receptor (reference)
Experimental: The resulting pellet was resuspended, homogenized and centrifuged (20.000 rpm, 15 min) in a buffer containing 20 mM Na-HEPES and 0.1 mM EDTA (pH 7.4, buffer 2). The resulting pellet was resuspended in buffer 2 and protein concentration was measured (BCA protein Assay, Pierce). The homogenate was kept cold during the whole procedure. The membranes were kept at −80° C. until use. The assay was performed in a 384 well Optiplate (PerkinElmer) in a total volume of 40 ul. Membranes were mixed with SPA beads. Final concentration of membranes 35 ng/μL final and SPA beads was 0.05 mg/well. Test-compounds were dissolved in DMSO and further diluted in assay buffer (50 mM Hepes, pH 7.4, 1 mM CaCl2, 5 mM MgCl₂, 0.1% OA and 0.02% Tween20). […] The final mixture was incubated with shaking at 400 rpm for 120 min at 25° C. prior to centrifugation (1500 rpm, 10 min). Samples were analyzed on TopCounter™ (Packard). The IC₅₀ was calculated using (one site binding competition analysis) GraphPad Prism5 as a measure of receptor affinity.
Membranes were prepared in the following way; the cells were rinsed with PBS and incubated with Versene for approximately 5 min before harvesting. The cells were flushed with PBS and the cell-suspension was centrifuged for 5 min at 1000 rpm. Cells were homogenized (Ultrathurrax) in a buffer containing 20 mM Na-HEPES and 10 mM EDTA (pH 7.4) and centrifuged at 20.000 rpm for 15 min. The resulting pellet was resuspended, homogenized and centrifuged (20.000 rpm, 15 min) in a buffer containing 20 mM Na-HEPES and 0.1 mM EDTA (pH 7.4, buffer 2). The resulting pellet was resuspended in buffer 2 and protein concentration was measured (BCA protein Assay, Pierce). The homogenate was kept cold during the whole procedure. The membranes were kept at −80° C. until use. Assay was performed in a 384 well Optiplate (PerkinElmer) in a total volume of 40 ul. Membranes were mixed with SPA beads.

rat calcitonin receptor [6] = biological target: T5, rat calcitonin receptor; assay: SPA competition with 125I-calcitonin, membranes with rat calcitonin receptor (Assay VIII)
rat calcitonin receptor [7] = biological target: T5, rat calcitonin receptor; assay: ratio of binding IC50 at rat calcitonin receptor to IC50 at rat amylin receptor (reference)

Ratio hCT/hAmylin binding [1] | IC50 (rat calcitonin receptor [2]) [nM] | Ratio rCT/rAmylin binding (rat calcitonin receptor [3]) | IC50 [4] [nM] | Ratio hCT/hAmylin binding [5] | IC50 (rat calcitonin receptor [6]) [nM] | Ratio rCT/rAmylin binding (rat calcitonin receptor [7]) | Binder
100 | 216 | 79.8 | 2.7 | – | – | – | {C20 diacid-γGlu}-GRCNTATCATQRLAHFLRHSSPNFGAIPSSTNVGSNTY-NH2 (disulfide 3-8; SMILES CC[C@H](C)[C@H](NC(=O)[C@H](C)NC(=O)CNC(=O)[C@H](Cc1ccccc1)NC(=O)[C@H](CC(N)=O)NC(=O)[C@@H]1CCCN1C(=O)[C@H](CO)NC(=O)[C@H](CO)NC(=O)[C@H](Cc1c[nH]cn1)NC(=O)[C@H](CCCNC(=N)N)NC(=O)[C@H](CC(C)C)NC(=O)[C@H](Cc1ccccc1)NC(=O)[C@H](Cc1c[nH]cn1)NC(=O)[C@H](C)NC(=O)[C@H](CC(C)C)NC(=O)[C@H](CCCNC(=N)N)NC(=O)[C@H](CCC(N)=O)NC(=O)[C@@H](NC(=O)[C@H](C)NC(=O)[C@@H]1CSSC[C@H](NC(=O)[C@H](CCCNC(=N)N)NC(=O)CNC(=O)CC[C@H](NC(=O)CCCCCCCCCCCCCCCCCCC(=O)O)C(=O)O)C(=O)N[C@@H](CC(N)=O)C(=O)N[C@@H]([C@@H](C)O)C(=O)N[C@@H](C)C(=O)N[C@@H]([C@@H](C)O)C(=O)N1)[C@@H](C)O)C(=O)N1CCC[C@H]1C(=O)N[C@@H](CO)C(=O)N[C@@H](CO)C(=O)N[C@H](C(=O)N[C@@H](CC(N)=O)C(=O)N[C@H](C(=O)NCC(=O)N[C@@H](CO)C(=O)N[C@@H](CC(N)=O)C(=O)N[C@H](C(=O)N[C@@H](Cc1ccc(O)cc1)C(N)=O)[C@@H](C)O)C(C)C)[C@@H](C)O, Synthetic acylated analogue of human amylin, extended by Gly at position -1; also called compound 99)
– | – | – | – | 65.3 | 46.8 | 104 | K([AEEA-γGlu-C20 diacid])CNTATCATQRLAHFLRHSSPNFGAIPSSTNVGSNTY-NH2 (disulfide 2-7; N-terminus assumed; SMILES CC[C@H](C)[C@H](NC(=O)[C@H](C)NC(=O)CNC(=O)[C@H](Cc1ccccc1)NC(=O)[C@H](CC(N)=O)NC(=O)[C@@H]1CCCN1C(=O)[C@H](CO)NC(=O)[C@H](CO)NC(=O)[C@H](Cc1c[nH]cn1)NC(=O)[C@H](CCCNC(=N)N)NC(=O)[C@H](CC(C)C)NC(=O)[C@H](Cc1ccccc1)NC(=O)[C@H](Cc1c[nH]cn1)NC(=O)[C@H](C)NC(=O)[C@H](CC(C)C)NC(=O)[C@H](CCCNC(=N)N)NC(=O)[C@H](CCC(N)=O)NC(=O)[C@@H](NC(=O)[C@H](C)NC(=O)[C@@H]1CSSC[C@H](NC(=O)[C@@H](N)CCCCNC(=O)COCCOCCNC(=O)CC[C@H](NC(=O)CCCCCCCCCCCCCCCCCCC(=O)O)C(=O)O)C(=O)N[C@@H](CC(N)=O)C(=O)N[C@@H]([C@@H](C)O)C(=O)N[C@@H](C)C(=O)N[C@@H]([C@@H](C)O)C(=O)N1)[C@@H](C)O)C(=O)N1CCC[C@H]1C(=O)N[C@@H](CO)C(=O)N[C@@H](CO)C(=O)N[C@H](C(=O)N[C@@H](CC(N)=O)C(=O)N[C@H](C(=O)NCC(=O)N[C@@H](CO)C(=O)N[C@@H](CC(N)=O)C(=O)N[C@H](C(=O)N[C@@H](Cc1ccc(O)cc1)C(N)=O)[C@@H](C)O)C(C)C)[C@@H](C)O, Analogue of human amylin; disulfide and C-terminal amide as told for h-amylin; also called compound 69)
